The target of series [1] is Ferric Uptake Regulator from Acidithiobacillus ferrooxidans (AfFur), wild type, N-terminal His-tag (Acidithiobacillus ferrooxidans ATCC 23270). The series is described as follows: SEC; size-exclusion chromatography of AfFur, data not shown; dimer in solution. For orientation: SEC sorts molecules by how far they enter the pores of the column.
Series [2] shares this target. The series is described as follows: SDS-PAGE and western blot; purified His-tagged AfFur on SDS-PAGE (Coomassie, Figure S2) and western blot with anti-6x His tag antibody (Figure S3); dimer. For orientation: Immunoblotting shows a protein as a band on a membrane.
Series [3] has as its target T1, AfFur H93A (Acidithiobacillus ferrooxidans ATCC …, UniProt B7J425 1-158, H93A).
T1 sequence: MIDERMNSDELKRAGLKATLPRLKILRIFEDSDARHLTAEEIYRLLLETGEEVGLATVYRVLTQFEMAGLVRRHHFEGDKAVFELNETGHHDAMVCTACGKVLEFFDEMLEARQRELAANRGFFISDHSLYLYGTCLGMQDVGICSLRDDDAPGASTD
The series can be described thus: EMSA; 0.1 mM Mn2+, 5 mM Mg2+; 10 mM Tris pH 7.5, 50 mM KCl, 5 mM MgCl2, 0.1 mM MnCl2, 1 mM DTT, 2.5% glycerol, 50 ng/uL poly(dI-dC), 0.05% NP-40; 20 fmol probe, 2.9-3.9 ug protein in 20 uL. The following applies: protein: recombinant; tags: N-terminal His6 (pLATE51); chain copies: 2; label: 5' biotin. (In general: In EMSA bound probe runs differently from free probe, usually more slowly.)

In series [4] the target is T2, AfFur C96A (Acidithiobacillus ferrooxidans ATCC …, UniProt B7J425 1-158, C96A).
T2 sequence: T1 sequence with A93H, C96A
The series can be described thus: EMSA; 0.1 mM Mn2+, 5 mM Mg2+; also no shift + EDTA; 10 mM Tris pH 7.5, 50 mM KCl, 5 mM MgCl2, 0.1 mM MnCl2, 1 mM DTT, 2.5% glycerol, 50 ng/uL poly(dI-dC), 0.05% NP-40; 20 fmol probe, 2.9-3.9 ug protein in 20 uL. The following applies: protein: recombinant; tags: N-terminal His6 (pLATE51); chain copies: 2; label: 5' biotin.

The target of series [5] is T3, AfFur C99A (Acidithiobacillus ferrooxidans ATCC …, UniProt B7J425 1-158, C99A).
T3 sequence: T1 sequence with A93H, C99A
The series is described as above. The conditions noted are these: protein: recombinant; tags: N-terminal His6 (pLATE51); chain copies: 2; label: 5' biotin.

In series [6] the target is T4, AfFur C145A (Acidithiobacillus ferrooxidans ATCC …, UniProt B7J425 1-158, C145A).
T4 sequence: T1 sequence with A93H, C145A
Described as above. The following applies: protein: recombinant; tags: N-terminal His6 (pLATE51); chain copies: 2; label: 5' biotin.

Series [7] addresses T5, AfFur C136A (Acidithiobacillus ferrooxidans ATCC …, UniProt B7J425 1-158, C136A).
T5 sequence: T1 sequence with A93H, C136A
Described as above. The following applies: protein: recombinant; tags: N-terminal His6 (pLATE51); chain copies: 2; label: 5' biotin.

Series [8] addresses T6, AfFur C145W (Acidithiobacillus ferrooxidans ATCC …, UniProt B7J425 1-158, C145W).
T6 sequence: T1 sequence with A93H, C145W
The description is as above. The conditions noted are these: protein: recombinant; tags: N-terminal His6 (pLATE51); chain copies: 2; label: 5' biotin.

The target of series [9] is T7, AfFur H91D (Acidithiobacillus ferrooxidans ATCC …, UniProt B7J425 1-158, H91D).
T7 sequence: T1 sequence with H91D, A93H
The series is described as follows: EMSA; 0.1 mM Mn2+, 5 mM Mg2+; lost with cold probe; 10 mM Tris pH 7.5, 50 mM KCl, 5 mM MgCl2, 0.1 mM MnCl2, 1 mM DTT, 2.5% glycerol, 50 ng/uL poly(dI-dC), 0.05% NP-40; 20 fmol probe, 2.9-3.9 ug protein in 20 uL. The following applies: protein: recombinant; tags: N-terminal His6 (pLATE51); chain copies: 2; label: 5' biotin.

In series [10] the target is T8, AfFur E104K (Acidithiobacillus ferrooxidans ATCC …, UniProt B7J425 1-158, E104K).
T8 sequence: T1 sequence with A93H, E104K
Described as above. The conditions noted are these: protein: recombinant; tags: N-terminal His6 (pLATE51); chain copies: 2; label: 5' biotin.

Series [11] has as its target T9, AfFur H91K (Acidithiobacillus ferrooxidans ATCC …, UniProt B7J425 1-158, H91K).
T9 sequence: T1 sequence with H91K, A93H
The series can be described thus: EMSA; 0.1 mM Mn2+, 5 mM Mg2+; shift persists with cold probe; 10 mM Tris pH 7.5, 50 mM KCl, 5 mM MgCl2, 0.1 mM MnCl2, 1 mM DTT, 2.5% glycerol, 50 ng/uL poly(dI-dC), 0.05% NP-40; 20 fmol probe, 2.9-3.9 ug protein in 20 uL. The conditions noted are these: protein: recombinant; tags: N-terminal His6 (pLATE51); chain copies: 2; label: 5' biotin.

Series [12] addresses T10, AfFur E84A (Acidithiobacillus ferrooxidans ATCC …, UniProt B7J425 1-158, E84A).
T10 sequence: T1 sequence with E84A, A93H
The series is described as above. The following applies: protein: recombinant; tags: N-terminal His6 (pLATE51); chain copies: 2; label: 5' biotin.

Series [13] has as its target T11, AfFur WT (Acidithiobacillus ferrooxidans ATCC …, UniProt B7J425 1-158).
T11 sequence: T1 sequence with A93H
The series is described as follows: EMSA; holo, 0.1 mM Mn2+, 5 mM Mg2+; shift lost with 200-fold cold probe; 10 mM Tris pH 7.5, 50 mM KCl, 5 mM MgCl2, 0.1 mM MnCl2, 1 mM DTT, 2.5% glycerol, 50 ng/uL poly(dI-dC), 0.05% NP-40; 20 fmol probe, 2.9-3.9 ug protein in 20 uL. The following applies: protein: recombinant; tags: N-terminal His6 (pLATE51); chain copies: 2; label: 5' biotin.

Numbering of substitutions follows the chain as printed.

A word on the stoichiometry N: it is a count of units in the complex or per binding partner. On to “Ferric Uptake Regulator from Acidithiobacillus ferrooxidans (AfFur), wild type, N-terminal His-tag (natural protein)”, for which the stoichiometry N in series [1] and in series [2] was 2 throughout.

B1: Bio-MntH-Fur-box (dsDNA)
DNA 1: GGCATCAATAAACGGGAATCATTCTCGTCTACC
DNA 2: GGTAGACGAGAATGATTCCCGTTTATTGATGCC
For the molecule B1, the binding result in [3], in series [4], in [5], in [6], in [7] and in [8] was “no binding” throughout. Moreover, the binding result in series [9], in series [10], in [11], in series [12] and in series [13] was “binds” in each case.

Source of the values: paper PMC11910503, “Novel metal sites revealed by spectroscopic and structural characterization of the ferric uptake regulator from Acidithiobacillus ferrooxidans”.
